Measurements as given in patent publication US10864252B2, “Anti-SSX-2 T cell receptors and related materials and methods of use” (The United States of America, as represented by the …, priority 2010, dated 2020).

Columns and labels:
938-A2 mel = assay: IFN-γ release, co-culture with 938-A2 melanoma; assay type: cell-based; conditions: Table 3; co-cultured with 938-A2 (Melanoma)
From the text: (§1) SSX-2 TCR-transduced PBLs were co-cultured with various tumor cell lines. […] FIGS. 4A and 4B, FIG. 11, and Tables 3 and 4 show additional results of PBLs from human donors that were transduced with the SSX-2 TCR of Example 2 when these PBLs were co-cultured with various tumor cells. PBLs that were untransduced (UT) or transduced with a vector comprising SEQ ID NO: 27 (SSX-2 TCR), SEQ ID NO: 29 (codon-optimized SSX-2 TCR), or SEQ ID NO: 30 (codon-optimized SSX-2 TCR including mouse constant region) were co-cultured with various tumor cell lines. Tables 5 and 6 show the resulting interferon-γ levels (pg/ml) measured with respect to PBL from two different donors.

938 mel = assay: IFN-γ release, co-culture with 938; assay type: cell-based; conditions: for IFN-γ: co-cultured with 938; for interferon-γ levels: co-cultured with 938 mel
From the text: as §1

SK MEL37 = assay: IFN-γ release, co-culture with SK MEL37 melanoma; assay type: cell-based; conditions: co-cultured with SK MEL37 (Melanoma)
From the text: as §1

T567A = assay: IFN-γ release, co-culture with T567A melanoma; assay type: cell-based; conditions: co-cultured with T567A (Melanoma)
From the text: (§2) SSX-2 TCR-transduced PBLs were co-cultured with various tumor cell lines. […] FIGS. 4A and 4B, FIG. 11, and Tables 3 and 4 show additional results of PBLs from human donors that were transduced with the SSX-2 TCR of Example 2 when these PBLs were co-cultured with various tumor cells.

MCF7 = assay: IFN-γ release, co-culture with MCF7; assay type: cell-based; conditions: co-cultured with MCF7
From the text: as §2

[1] = test system: SSX-2+/HLA-A2+ target cells; assay: Percent lysis of target cells; assay type: cell-based; conditions: FIGS. 7A-D and 8A-D, various E:T ratios
H82 = assay: IFN-γ release, co-culture with H82; assay type: cell-based; conditions: co-cultured with H82
From the text: as §2

COS-A2-SSX2 cells = assay: CD137 (4-1BB) upregulation after co-culture with COS-A2-SSX2 cells; assay type: cell-based; conditions: FACS after co-culture with COS-A2-SSX2 cells
K562 = assay: IFN-γ release, co-culture with K562; assay type: cell-based; conditions: co-cultured with K562
From the text: (§3) PBLs that were untransduced (UT) or transduced with a vector comprising SEQ ID NO: 27 (SSX-2 TCR), SEQ ID NO: 29 (codon-optimized SSX-2 TCR), or SEQ ID NO: 30 (codon-optimized SSX-2 TCR including mouse constant region) were co-cultured with various tumor cell lines. Tables 5 and 6 show the resulting interferon-γ levels (pg/ml) measured with respect to PBL from two different donors.

Lau 149 mel = assay: IFN-γ release, co-culture with Lau 149 mel; assay type: cell-based; conditions: co-cultured with Lau 149 mel
From the text: as §3

SSX-1 to SSX-10 peptides = assay: Co-culture with T2 cells pulsed with SSX family peptides; assay type: cell-based; conditions: peptide-pulsed T2 cells; FIG. 5
Method: The peptides used for pulsing were: SSX-1 (KYSEKISYV, SEQ ID NO: 32) (-♦-); SSX-2 (KASEKIFYV, SEQ ID NO: 2) (▪); SSX-3 (KVSEKIVYV, SEQ ID NO: 8) (▪); SSX-4 (KSSEKIVYV, SEQ ID NO: 9) (X); SSX-5 (KASEKIIYV, SEQ ID NO: 10) ( ? ); SSX-6 (KFSEKISCV, SEQ ID NO: 33) (•); SSX-7 (KSLEKISYV, SEQ ID NO: 34) (|); SSX-8 KYSEKISYV, SEQ ID NO: 32) (-); SSX-9 (KSSEKIIYV, SEQ ID NO: 11) (—); and SSX-10 (KASEKILYV, SEQ ID NO: 12) (--♦--).
Co-culture assays were performed with PBLs transduced with the SSX-2 TCR of Example 2 and peptide-pulsed T2 cells.

888 = assay: IFN-γ release, co-culture with 888; assay type: cell-based; conditions: co-cultured with 888
From the text: as §2

U251 Glioma = assay: IFN-γ release, co-culture with U251 glioma; assay type: cell-based; conditions: co-cultured with U251 (Glioma)
From the text: as §1

COS-A2 SSX2 = assay: IFN-γ release, co-culture with COS-A2 SSX2; assay type: cell-based; conditions: co-cultured with COS-A2 SSX2
From the text: as §1

293-A2 = assay: IFN-γ release, co-culture with 293-A2; assay type: cell-based; conditions: co-cultured with 293-A2
From the text: as §1

T331A mel = assay: IFN-γ release, co-culture with T331A; assay type: cell-based; conditions: for IFN-γ: co-cultured with T331A; for interferon-γ levels: co-cultured with T331A mel
From the text: as §1

SKOV3 Ovarian = assay: IFN-γ release, co-culture with SKOV3 ovarian; assay type: cell-based; conditions: co-cultured with SKOV3 (Ovarian)
From the text: as §1

[2] = test system: melanoma (624, and 1300) and glioblastoma cell lines (U251); assay: IFN-γ release, co-culture with various tumor cell lines (FIG. 3); assay type: cell-based
From the text: SSX-2 TCR-transduced PBLs were co-cultured with various tumor cell lines.

SSX-2 = assay: Tetramer binding of transduced PBL; conditions: human donor-derived PBL; CD4 and CD8 cells
OVCAR3 = assay: IFN-γ release, co-culture with OVCAR3; assay type: cell-based; conditions: co-cultured with OVCAR3
From the text: as §2

HEPG2 = assay: IFN-γ release, co-culture with HEPG2; assay type: cell-based; conditions: co-cultured with HEPG2
From the text: as §2

624 mel = assay: IFN-γ release, co-culture with 624 melanoma; assay type: cell-based; conditions: co-cultured with 624 (Melanoma)
From the text: as §1

SKMEL 23 = assay: IFN-γ release, co-culture with SKMEL 23; assay type: cell-based; conditions: co-cultured with SKMEL 23
From the text: as §2

B1: SSX2-TCR-WT: HLA-A2 restricted anti-SSX-2 TCR alpha and beta chains encoded by SEQ ID NO: 27, tested as transduced human PBLs (protein)
chain: MSLSSLLKVVTASLWLGPGIAQKITQTQPGMFVQEKEAVTLDCTYDTSDPSYGLFWYKQPSSGEMIFLIYQGSYDQQNATEGRYSLNFQKARKSANLVISASQLGDSAMYFCAMTSGFGNEKLTFGTGTRLTIIPNIQNPDPAVYQLRDSKSSDKSVCLFTDFDSQTNVSQSKDSDVYITDKTVLDMRSMDFKSNSAVAWSNKSDFACANAFNNSIIPEDTFFPSPESSCDVKLVEKSFETDTNLNFQNLSVIGFRILLLKVAGFNLLMTLRLWSSRAKRSGSGATNFSLLKQAGDVEENPGPMGPGLLHWMALCLLGTGHGDAMVIQNPRYQVTQFGKPVTLSCSQTLNHNVMYWYQQKSSQAPKLLFHYYDKDFNNEADTPDNFQSRRPNTSFCFLDIRSPGLGDAAMYLCATSRGQGGQPQHFGDGTRLSILEDLNKVFPPEVAVFEPSEAEISHTQKATLVCLATGFFPDHVELSWWVNGKEVHSGVSTDPQPLKEQPALNDSRYCLSSRLRVSATFWQNPRNHFRCQVQFYGLSENDEWTQDRAKPVTQIVSAEAWGRADCGFTSVSYQQGVLSATILYEILLGKATLYAVLVSALVLMAMVKRKDF
938-A2 mel
  IFN-γ: 19320 pg/mL
938 mel; Table 3
  IFN-γ: 0 pg/mL
938 mel; Table 4
  IFN-γ: 0 pg/mL
938 mel; Table 5 donor
  interferon-γ levels: 1239 pg/mL
938 mel; Table 6 donor
  interferon-γ levels: 1451 pg/mL
SK MEL37; Table 3
  IFN-γ: 10000 pg/mL
SK MEL37; Table 4
  IFN-γ: 9720 pg/mL
T567A; Table 3
  IFN-γ: 10280 pg/mL
T567A; Table 4
  IFN-γ: 13245 pg/mL
MCF7; Table 3
  IFN-γ: 0 pg/mL
MCF7; Table 4
  IFN-γ: 3 pg/mL
[1]
  lytic activity (percent lysis): specific lytic activity against SSX-2^+/HLA-A2^+ target cells
H82; Table 3
  IFN-γ: 141 pg/mL
H82; Table 4
  IFN-γ: 100 pg/mL
COS-A2-SSX2 cells
  activation marker CD137 (4-1BB): upregulated
K562; Table 5 donor
  interferon-γ levels: 1969 pg/mL
K562; Table 6 donor
  interferon-γ levels: 1807 pg/mL
Lau 149 mel; Table 5 donor
  interferon-γ levels: 285 pg/mL
Lau 149 mel; Table 6 donor
  interferon-γ levels: 125 pg/mL
SSX-1 to SSX-10 peptides
  reactivity with SSX family peptides: most reactive with the peptide of SSX-2 and also recognizes the peptides of SSX-3, -4, -5, -9, and -10 over the other SSX peptides
888; Table 3
  IFN-γ: 126 pg/mL
888; Table 4
  IFN-γ: 143 pg/mL
U251 Glioma; Table 3
  IFN-γ: 9770 pg/mL
U251 Glioma; Table 4
  IFN-γ: 12025 pg/mL
COS-A2 SSX2; Table 3
  IFN-γ: 36070 pg/mL
COS-A2 SSX2; Table 4
  IFN-γ: 56820 pg/mL
293-A2; Table 3
  IFN-γ: 173 pg/mL
293-A2; Table 4
  IFN-γ: 144 pg/mL
293-A2; Table 5 donor
  interferon-γ levels: 582 pg/mL
293-A2; Table 6 donor
  interferon-γ levels: 1520 pg/mL
T331A mel; Table 3
  IFN-γ: 0 pg/mL
T331A mel; Table 4
  IFN-γ: 42 pg/mL
T331A mel; Table 5 donor
  interferon-γ levels: 30 pg/mL
T331A mel; Table 6 donor
  interferon-γ levels: 58 pg/mL
SKOV3 Ovarian; Table 3
  IFN-γ: 663 pg/mL
SKOV3 Ovarian; Table 4
  IFN-γ: 610 pg/mL
[2]
  recognition of tumor cell lines (IFN-γ): recognized naturally processed and presented SSX-2 protein in both melanoma (624, and 1300) and glioblastoma cell lines (U251)
SSX-2
  tetramer binding: tetramer binding
OVCAR3; Table 3
  IFN-γ: 0 pg/mL
OVCAR3; Table 4
  IFN-γ: 21 pg/mL
HEPG2; Table 3
  IFN-γ: 25 pg/mL
HEPG2; Table 4
  IFN-γ: 61 pg/mL
624 mel; Table 3
  IFN-γ: 26515 pg/mL
624 mel; Table 4
  IFN-γ: 21730 pg/mL
SKMEL 23; Table 3
  IFN-γ: 0 pg/mL
SKMEL 23; Table 4
  IFN-γ: 0 pg/mL
